{"source": "patent US20240238451A1", "experiment_in_all_cases": "cell-based or functional assay", "key": {"EGFP [GFP: P42212]": {"target": "EGFP [GFP: P42212]"}, "mCherry": {"target": "mCherry"}, "ALFA-tagged GAL4-VP16": {"target": "ALFA-tagged GAL4-VP16"}}, "data": [{"substance": "bispecific NIR-FbGFP-NIR-FbmCherry fusion (bispecific antibody)", "values": [{"measurement": "drop of NIR fluorescence when only mCherry (no EGFP) is co-expressed", "setting": "EGFP [GFP: P42212]", "result": 10, "unit": "fold"}, {"measurement": "drop of NIR fluorescence when only EGFP (no mCherry) is co-expressed", "setting": "mCherry", "result": 10, "unit": "fold"}]}, {"substance": "NIR-FbmCherry-NbGFP fusion (bispecific antibody)", "values": [{"measurement": "reduction in EGFP fluorescence in the absence of mCherry", "setting": "EGFP [GFP: P42212]", "result": 60, "unit": "%"}]}, {"substance": "biNIR-FbGFP-NbALFA (bispecific antibody)", "values": [{"measurement": "reduction of Gluc signal in the absence of EGFP (ALFA-GAL4, pUAS-Gluc, HeLa)", "setting": "ALFA-tagged GAL4-VP16", "result": 85, "unit": "%"}]}, {"substance": "biNIR-FbGFP-GAL4", "values": [{"measurement": "decrease of Gluc signal with mTagBFP2 instead of EGFP (GAL4/UAS reporter, HeLa)", "setting": "EGFP [GFP: P42212]", "result": 50, "unit": "fold"}]}, {"substance": "Gluc-biNIR-FbGFP fusion", "values": [{"measurement": "reduction of secreted Gluc signal with mTagBFP2 instead of EGFP (HeLa)", "setting": "EGFP [GFP: P42212]", "result": 78, "unit": "%"}]}, {"substance": "NIR-FbGFP-NbALFA (bispecific antibody)", "values": [{"measurement": "reduction of Gluc signal without EGFP against EGFP-expressing cells (ALFA-GAL4, pUAS-Gluc, HeLa)", "setting": "ALFA-tagged GAL4-VP16", "result": 75, "unit": "%"}]}, {"substance": "NIR-FbGFP-GAL4 fusion", "values": [{"measurement": "decrease of Gluc bioluminescent signal with mTagBFP2 instead of EGFP (GAL4/UAS reporter, HeLa)", "setting": "EGFP [GFP: P42212]", "result": 25, "unit": "fold"}, {"measurement": "reduction of mCherry reporter level in the absence of EGFP (pUAS-mCherry reporter)", "setting": "EGFP [GFP: P42212]", "result": 3, "unit": "fold"}]}]}
